In publication PMC7464140, “Cooperative Regulation of Campylobacter jejuni Heat-Shock Genes by HspR and HrcA” (Microorganisms, 2020):

B1: His-tagged HrcA (C. jejuni) (natural protein, UniProt Q9PPG2 1-264, looked up)
chain: MMKSRDKKDLILESIIQTYLLDNAPIGSNELNSNLCIPASTIRVYLKRLSDEGLITQLHISSGRIPTILTMQNYWQNFWEKEQDKNIHIKNESFLKELSKEFEIYCLVYGGRSLVLKEVLDLNTKFIVLDFEDEELVLKYEKEAWNFLQSLIGLDLSSIEKIALRVHFIDLVEKIASLRQNLICYRSNEERAYQIYQNDEFVKLLDCQIHRHFKESLEFEPLFKEGFMGLKVDAQFLGEDVNIILAGSVYTDYKKILQYIKEAA
notes: HrcA heat-shock transcriptional repressor of Campylobacter jejuni; it could also have been GST-HrcA; also called His-HrcA; recombinant HrcA protein; source: E. coli BL21 (DE3), pET15b-hrcA, purified (Ni2+-NTA)
B2: His-tagged HspR (C. jejuni) (natural protein, UniProt Q0P926 1-124, looked up)
chain: MEQHYDEPVYLISVVAKVLSIHPQTLRQYEREGLIEPSRTDGKIRLYSQRDIDRIKLILRLTRDMGINLAGVDVILKLKNQLHEFENLIDELRLELSKQQDKEAASKAVVKHKNSFDLIFYEKK
notes: HspR heat-shock transcriptional repressor of Campylobacter jejuni; Probably strain NCTC11168, the only C. jejuni strain named; also called His-HspR; recombinant His-tagged HspR; source: E. coli BL21 (DE3), pET15b-hspR, purified (Ni2+-NTA)

Target: the molecule itself
Assay: cross-linking; in vitro chemical cross-linking of HrcA and HspR proteins with formaldehyde (Figure S2)

Protein | stoichiometry N
B1 | 2
B2 | 2
